How the values were obtained:
[1] = biological target: T1, recombinant full-length PcrV protein (1-294) of Pseudomonas aeruginosa (Pseudomonas aeruginosa, in the biotin-labeled form: PEO-maleimide biotin on the cysteine inserted between histidine tag and start codon); test: surface plasmon resonance analysis, PcrV antigen
T1 construct: also called PcrV antigen; recombinant PcrV; not shown: N-terminal histidine tag encoded by the expression vector (pWE30 [sic] / pQE30)

[2] = biological target: T2, truncated PcrV (136-233) (Pseudomonas aeruginosa); test: Western blotting: purified recombinant truncated PcrV on SDS-PAGE/PVDF, antibody at 1 ug/mL, labeled anti-mouse IgG, ECL [panel Truncated PcrV (136-233]
T2 construct: also called truncated PcrV protein

[3] = biological target: T1, recombinant full-length PcrV protein …; test: SPR, BIAcore T100, antibody captured by anti-mouse antibody on CM5 chip, recombinant PcrV as analyte
[4] = biological target: T1, recombinant full-length PcrV protein …; test: surface plasmon resonance analysis, PcrV antigen; remark: listed apart in the source
[5] = biological target: T1, recombinant full-length PcrV protein …; test: SPR, BIAcore T-100, culture supernatant, recombinant PcrV (FIG. 13)
[6] = biological target: T1, recombinant full-length PcrV protein …; test: surface plasmon resonance analysis (BIAcore T-100), culture supernatant, recombinant PcrV

| Binder | Kd [1] | koff [1] | kon [1] | binding result [2] | Kd [3] | Kd [4] | koff [4] | kon [4] | Kd [5] | koff [6] | kon [6] |
| --- | --- | --- | --- | --- | --- | --- | --- | --- | --- | --- | --- |
| humanized monoclonal antibody h1F3 (antibody, V domains shown, also called humanized antibody; humanized PcrV antibody) VH: QVQLVQSGAEVKKPGASVKVSCKASGYSFTSYWMHWVRQAPGQGLEWMGEINPSNGRTNYNEKFNTRVTMTRDTSTSTVYMELSSLRSEDTAVYYCVLYGNYVVYYTMDYWGQGT VL: DIQLTQSPSFLSASVGDRVTITCSASTSVSYMEWYQQKPGKAPKLLIYTTSKLASGVPSRFSGSGSGTEFTLTISSLQPEDFATYYCHQWRNYPFTFGQGTKLEIKR | 0.38 nM | 0.00033 s⁻¹ | 870000 M⁻¹ s⁻¹ | – | – | – | – | – | – | – | – |
| mouse monoclonal antibody 1F3 (antibody, V domains shown, also called m1F3; mouse PcrV antibody) VH: QVQLQQPGAELVKPGASVKLSCKASGYSFTSYWMHWVKQRPGQGLEWIGEINPSNGRTNYNEKFNTKATLTVDTSSSTAYMQLSSLTSEDSAVYYCVLYGNYVVYYTMDYWGQGTSVTVSS VL: QIVLTQSPTIMSASLGEEITLTCSASTSVSYMEWYQQKSGTSPKILIYTTSKLASGVPSRFSGSGSGTFYSLTISSVEAEDAADYYCHQWRNYPFTFGSGTKLEIK | – | – | – | binds | 0.37 nM | – | – | – | – | – | – |
| mouse-human chimeric 1F3 antibody (antibody, V domains shown, Human IgG4Pro (S228P) heavy constant region and human Igkappa constant region; tested as culture supernatant; also called mouse-human chimeric antibody; mouse/human chimeric antibody) VH: QVQLQQPGAELVKPGASVKLSCKASGYSFTSYWMHWVKQRPGQGLEWIGEINPSNGRTNYNEKFNTKATLTVDTSSSTAYMQLSSLTSEDSAVYYCVLYGNYVVYYTMDYWGQGTSVTVSS VL: QIVLTQSPTIMSASLGEEITLTCSASTSVSYMEWYQQKSGTSPKILIYTTSKLASGVPSRFSGSGSGTFYSLTISSVEAEDAADYYCHQWRNYPFTFGSGTKLEIK | 0.49 nM | 0.00037 s⁻¹ | 740000 M⁻¹ s⁻¹ | – | – | 0.27 nM | 0.00023 s⁻¹ | 850000 M⁻¹ s⁻¹ | 0.26 nM | 0.00051 s⁻¹ | 2e+06 M⁻¹ s⁻¹ |
| antibody including the heavy chain of the template humanized antibody and the light chain of the mutant humanized antibody (antibody, V domains shown, Human IgG4Pro (S228P) and human Igkappa constant regions; tested as culture supernatant; also called HT/LB) VH: QVQLVQSGAEVKKPGASVKVSCKASGYSFTSYWMHWVRQAPGQGLEWMGEINPSNGRTNYNEKFNTRVTMTRDTSTSTVYMELSSLRSEDTAVYYCARYGNYVVYYTMDYWGQGTTVTVSS VL: DIQLTQSPTFLSASVGDRVTITCSASTSVSYMEWYQQKPGKAPKILIYTTSKLASGVPSRFSGSGSGTEYTLTISSLQPEDFATYYCHQWRNYPFTFGQGTKLEIK | – | – | – | – | – | – | – | – | 650 nM | 0.04 s⁻¹ | 62000 M⁻¹ s⁻¹ |

— US20120093808A1 (SHIONOGI, published 2012)
